In patent US12097241B2, “Methods of treating kidney failure, and/or improving or stablizing renal function using modified relaxin polypeptides” (BRISTOL-MYERS SQUIBB COMPANY, priority 2017, dated 2024):

Tests used:
[1] = In vivo pharmacokinetic (PK) studies in rats; design: species or system Sprague-Dawley rats; settings: rat, male Sprague-Dawley rats, single SC dose 1.0 mg/kg, serum ELISA; for AUC(0-inf): read-out: Rat PK AUC Total; for level at time molar at 24 h: read-out: Rat PK C24
Summary of the method: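 Male Sprague-Dawley rats (n=3) given a single 1 mg/kg IV or SC dose of relaxin constructs in 20 mM histidine, 750 mM NaCl, pH 6.0; jugular serum sampled to 72 h. Serum relaxin by ELISA; Cmax, AUCinf, C24 and half-life from non-compartmental analysis of individual profiles.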

human RXFP1 receptor = biological target: T1, human RXFP1 receptor (Homo sapiens, UniProt Q9HBX9); assay: Intracellular cAMP accumulation assay; assay type: cell-based; settings: CHO-K1 cells stably expressing human RXFP1; 10 min at 37° C.; HTRF cAMP; average; read-out: hRXFP1/CHO-K1 cAMP EC50 (nM, avg)
T1 construct: expressed in transfected cells
T1 sequence (Q9HBX9 1-757): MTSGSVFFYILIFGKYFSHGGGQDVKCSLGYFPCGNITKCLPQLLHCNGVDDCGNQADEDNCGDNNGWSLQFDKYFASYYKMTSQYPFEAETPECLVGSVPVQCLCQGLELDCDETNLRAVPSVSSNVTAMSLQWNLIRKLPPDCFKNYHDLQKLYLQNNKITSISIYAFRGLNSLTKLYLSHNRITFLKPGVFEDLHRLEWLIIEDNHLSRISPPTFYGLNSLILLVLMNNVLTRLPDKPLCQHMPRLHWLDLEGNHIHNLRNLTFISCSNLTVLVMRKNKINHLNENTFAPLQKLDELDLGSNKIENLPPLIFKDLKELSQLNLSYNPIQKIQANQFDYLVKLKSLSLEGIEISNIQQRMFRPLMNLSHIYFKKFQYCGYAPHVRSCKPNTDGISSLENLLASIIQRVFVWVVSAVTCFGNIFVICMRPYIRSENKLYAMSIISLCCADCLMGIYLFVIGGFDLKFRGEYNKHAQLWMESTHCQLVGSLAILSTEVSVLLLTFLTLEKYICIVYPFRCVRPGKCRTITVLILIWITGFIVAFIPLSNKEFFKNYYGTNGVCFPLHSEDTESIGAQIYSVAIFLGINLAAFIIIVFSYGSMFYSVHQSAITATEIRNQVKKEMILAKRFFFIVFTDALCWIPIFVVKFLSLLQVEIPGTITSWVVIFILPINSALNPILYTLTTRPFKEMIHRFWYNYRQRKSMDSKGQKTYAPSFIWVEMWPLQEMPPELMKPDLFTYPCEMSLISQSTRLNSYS

SMILES	AUC(0-inf) [1] [µM·h]	level at time molar at 24 h [1] [nM]	EC50 (human RXFP1 receptor) [nM]
CC[C@H](C)[C@@H]1NC(=O)[C@H](C)NC(=O)[C@H]([C@@H](C)CC)NC(=O)[C@H](CCC(N)=O)NC(=O)[C@H](C)NC(=O)[C@H](CCCNC(=N)N)NC(=O)[C@H](C(C)C)NC(=O)[C@H](CC(C)C)NC(=O)[C@H](CCC(=O)O)NC(=O)[C@H](CCCNC(=N)N)NC(=O)CNC(=O)[C@@H](NC(=O)[C@H](CC(C)C)NC(=O)[C@H](CCCCN)NC(=O)[C@@H](NC(=O)[C@@H](NC(=O)[C@H](CCC(=O)O)NC(=O)[C@H](CCC(=O)O)NC(=O)[C@H](CCSC)NC(=O)[C@H](Cc2c[nH]c3ccccc23)NC(=O)[C@H](CO)NC(=O)[C@H](C)N)C(C)C)[C@@H](C)CC)CSSC[C@@H]2NC(=O)[C@@H](NC(=O)[C@H](CCCCN)NC(=O)[C@H](CC(N)=O)NC(=O)[C@H](C)NC(=O)[C@H](CC(C)C)NC(=O)[C@H](C)NC(=O)[C@H](CO)NC(=O)[C@H](Cc3ccc(O)cc3)NC(=O)[C@H](CC(C)C)NC(=O)[C@@H](N)Cc3ccc(C(C)=NOCCNC(=O)[C@H](CC(=O)O)NC(=O)[C@H](CCCNC(=N)N)NC(=O)[C@H](CC(=O)O)NC(=O)[C@H](CC(=O)O)NC(=O)[C@H](CCCNC(=N)N)NC(=O)[C@H](CC(=O)O)NC(=O)CCCCCCCCCCCCC(=O)O)cc3)CSSC[C@H](NC(=O)CNC(=O)[C@H](C(C)C)NC(=O)[C@H](Cc3c[nH]cn3)NC2=O)C(=O)N[C@@H]([C@@H](C)O)C(=O)N[C@@H](CCCCN)C(=O)N[C@@H](CCCNC(=N)N)C(=O)N[C@@H](CO)C(=O)N[C@@H](CC(C)C)C(=O)N[C@@H](C)C(=O)N[C@@H](CCCNC(=N)N)C(=O)N[C@@H](Cc2ccccc2)C(=O)N[C@H](C(=O)O)CSSC[C@@H](C(=O)NCC(=O)N[C@@H](CCSC)C(=O)N[C@@H](CO)C(=O)N[C@H](C(=O)N[C@@H](Cc2c[nH]c3ccccc23)C(=O)N[C@@H](CO)C(=O)O)[C@@H](C)O)NC1=O [AQ1-DRDDRD-C13-COOH]	1.01	0.38	0.32
CCCCCCCCCCCCCC(=O)N[C@@H](CCC(=O)NCC(=O)NCC(=O)NCC(=O)N[C@@H](CCC(=O)O)C(=O)N[C@@H](CCC(=O)O)C(=O)N[C@@H](CCC(=O)O)C(=O)NCCON=C(C)c1ccc(C[C@H](N)C(=O)N[C@@H](CC(C)C)C(=O)N[C@@H](Cc2ccc(O)cc2)C(=O)N[C@@H](CO)C(=O)N[C@@H](C)C(=O)N[C@@H](CC(C)C)C(=O)N[C@@H](C)C(=O)N[C@@H](CC(N)=O)C(=O)N[C@@H](CCCCN)C(=O)N[C@H]2CSSC[C@@H]3NC(=O)CNC(=O)[C@H](C(C)C)NC(=O)[C@H](Cc4c[nH]cn4)NC(=O)[C@H](CSSC[C@H](NC(=O)[C@H](CC(C)C)NC(=O)[C@H](CCCCN)NC(=O)[C@@H](NC(=O)[C@@H](NC(=O)[C@H](CCC(=O)O)NC(=O)[C@H](CCC(=O)O)NC(=O)[C@H](CCSC)NC(=O)[C@H](Cc4c[nH]c5ccccc45)NC(=O)[C@H](CO)NC(=O)[C@H](C)N)C(C)C)[C@@H](C)CC)C(=O)NCC(=O)N[C@@H](CCCNC(=N)N)C(=O)N[C@@H](CCC(=O)O)C(=O)N[C@@H](CC(C)C)C(=O)N[C@@H](C(C)C)C(=O)N[C@@H](CCCNC(=N)N)C(=O)N[C@@H](C)C(=O)N[C@@H](CCC(N)=O)C(=O)N[C@@H]([C@@H](C)CC)C(=O)N[C@@H](C)C(=O)N[C@@H]([C@@H](C)CC)C(=O)N[C@H](C(=O)NCC(=O)N[C@@H](CCSC)C(=O)N[C@@H](CO)C(=O)N[C@H](C(=O)N[C@@H](Cc4c[nH]c5ccccc45)C(=O)N[C@@H](CO)C(=O)O)[C@@H](C)O)CSSC[C@@H](C(=O)O)NC(=O)[C@H](Cc4ccccc4)NC(=O)[C@H](CCCNC(=N)N)NC(=O)[C@H](C)NC(=O)[C@H](CC(C)C)NC(=O)[C@H](CO)NC(=O)[C@H](CCCNC(=N)N)NC(=O)[C@H](CCCCN)NC(=O)[C@H]([C@@H](C)O)NC3=O)NC2=O)cc1)C(=O)O [AQ1-EEEGGG-Glu^γ-C13-CH3]	0.274	0.4	0.38
